Common to all, as to assay: cell-based or functional assay
The target of experiment [1] is hemagglutinin (HA) of influenza virus B/Lee/40 (Old) (influenza B virus) (UniProt P03460).
The target of experiment [2] is hemagglutinin (HA) of influenza virus B/Malaysia/2506/04 (Victoria) (influenza B virus).
For experiment [3], the target named is hemagglutinin (HA) of influenza virus H10N7 A/Chick/Germany/N/49 (influenza A virus).
In experiment [4] the target is hemagglutinin (HA) of influenza virus H14N5 A/Mallard/Astrakhan/263/1982 (influenza A virus).
Experiment [5] has as its target hemagglutinin (HA) of influenza virus H1N1 A/Brisbane/59/07 (influenza A virus).
Experiment [6] concerns the target hemagglutinin (HA) of influenza virus H1N1 A/Christchurch/16/10 (influenza A virus).
Experiment [7] addresses hemagglutinin (HA) of influenza virus H1N1 A/HK/54/98 (influenza A virus).
Experiment [8] addresses hemagglutinin (HA) of influenza virus H1N1 A/New Caledonia/20/99 (influenza A virus).
The target in experiment [9] is hemagglutinin (HA) of influenza virus H1N1 A/Solomon Islands/3/2006 (IVR 145) (influenza A virus).
In experiment [10] the target is hemagglutinin (HA) of influenza virus H1N1 A/WSN/33 (influenza A virus) (UniProt P03454).
For experiment [11], the target named is hemagglutinin (HA) of influenza virus H1N2 A/Env/HK/MPU3156/05 (influenza A virus).
In experiment [12] the target is hemagglutinin (HA) of influenza virus H2N2 A/AnnArbor/23/57 (influenza A virus).
The target of experiment [13] is hemagglutinin (HA) of influenza virus H3N2 A/Fukui/45/04 (influenza A virus).
Experiment [14] concerns the target hemagglutinin (HA) of influenza virus H3N2 A/HK/1/68-MA (influenza A virus).
Experiment [15] has as its target hemagglutinin (HA) of influenza virus H3N2 A/Panama/2007/99 (influenza A virus).
Experiment [16] deals with hemagglutinin (HA) of influenza virus H4 A/WF/HK/MPA892/06 (influenza A virus).
The target in experiment [17] is hemagglutinin (HA) of influenza virus H4N1 A/Northern Pintail/MPB1368/06 (influenza A virus).
Experiment [18] has as its target hemagglutinin (HA) of influenza virus H4N6 A/Great Cormorant/MPB1683/06 (influenza A virus).
Experiment [19] addresses hemagglutinin (HA) of influenza virus H5N1 A/Vietnam/1194/04 (influenza A virus).
The target of experiment [20] is hemagglutinin (HA) of influenza virus H6N1 A/Eurasian Wigeon/MPG1884/09 (influenza A virus).
For experiment [21], the target named is hemagglutinin (HA) of influenza virus H7N3 A/NIBRG/60 (A/mallard/Netherlands/12/00) (influenza A virus).
Experiment [22] addresses hemagglutinin (HA) of influenza virus H9N2 A/Ck/HK/SSP176/09 (influenza A virus).
In experiment [23] the target is hemagglutinin (HA) of influenza virus H9N2 A/Great Cormorant/MP2934/04 (influenza A virus).
Experiment [24] deals with hemagglutinin (HA) of influenza virus H9N2 A/HK/466419/09 (influenza A virus).

hemagglutinin (HA) of influenza virus B/Lee/40 (Old) (influenza B virus), sequence (P03460 16-584 limits assumed): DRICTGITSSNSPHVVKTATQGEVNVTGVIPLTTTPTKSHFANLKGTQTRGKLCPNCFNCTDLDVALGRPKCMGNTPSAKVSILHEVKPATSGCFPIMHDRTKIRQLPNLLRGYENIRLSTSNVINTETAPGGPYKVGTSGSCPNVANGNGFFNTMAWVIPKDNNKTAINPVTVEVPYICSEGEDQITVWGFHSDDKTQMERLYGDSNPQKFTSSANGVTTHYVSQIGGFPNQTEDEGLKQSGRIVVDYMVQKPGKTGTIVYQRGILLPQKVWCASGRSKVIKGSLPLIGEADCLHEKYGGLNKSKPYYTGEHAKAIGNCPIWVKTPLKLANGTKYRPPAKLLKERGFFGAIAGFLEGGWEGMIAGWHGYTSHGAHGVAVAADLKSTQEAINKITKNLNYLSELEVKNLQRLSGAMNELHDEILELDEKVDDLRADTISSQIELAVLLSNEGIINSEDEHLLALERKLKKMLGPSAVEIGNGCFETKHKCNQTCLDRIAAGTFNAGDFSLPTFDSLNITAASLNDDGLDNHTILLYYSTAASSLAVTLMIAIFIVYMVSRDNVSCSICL

B1: MD2407 (bispecific antibody)
chain: EVQLVESGGGLVQPGGSLRLSCAVSISIFDIYAMDWYRQAPGKQRDLVATSFRDGSTNYADSVKGRFTISRDNAKNTLYLQMNSLKPEDTAVYLCHVSLYRDPLGVAGGMGVYWGKGALVTVSSGGGGSGGGGSEVQLVESGGGLVQAGGSLKLSCAASGRTYAMGWFRQAPGKEREFVAHINALGTRTYYSDSVKGRFTISRDNAKNTEYLEMNNLKPEDTAVYYCTAQGQWRAAPVAVAAEYEFWGQGTQVTVSSGGGGSGGGGSEVQLVESGGGLVQPGGSLRLSCAATGFTLENKAIGWFRQTPGSEREGVLCISKSGSWTYYTDSMRGRFTISRDNAENTVYLQMDSLKPEDTAVYYCATTTAGGGLCWDGTTFSRLASSWGQGTQVTVSSGGGGSGGGGSEVQLVESGGGLVQPGGSLKLSCAASGFTFSTSWMYWLRQAPGKGLEWVSVINTDGGTYYADSVKDRFTISRDNAKDTLYLQMSSLKSEDTAVYYCAKDWGGPEPTRGQGTQVTVSS
In the case of B1, the average neutralization titer in experiment [1] stood at 18.4 nM; in experiment [2] it was 9.2 nM; in experiment [3] it was 13.2 nM; in experiment [4], 19.2 nM; in [5], 3.7 nM; in [6], 1.3 nM. The average neutralization titer in experiment [7] worked out at 10.3 nM; in experiment [8] it was 5.7 nM; in experiment [9], 5.4 nM; in experiment [10], 4.8 nM; in experiment [11], 25.6 nM; in [12], 101 nM. Further, the average neutralization titer was determined as 19.2 nM in [13]; 25.9 nM in experiment [14]; 14.9 nM in experiment [15]; 6.8 nM in [16]; 8.2 nM in experiment [17]; 4.8 nM in experiment [18]. In addition, the average neutralization titer in experiment [19] was 9.2 nM; in experiment [20], 20.6 nM; in experiment [21], 13.8 nM; in experiment [22] it was 23 nM; in experiment [23] it was 19.6 nM; in experiment [24], 53.9 nM.

Source of the values: patent US20190359693A1.
